Publication PMC5534430, “Crystal structure of a Pseudomonas malonate decarboxylase holoenzyme hetero-tetramer” (Nature Communications, 2017)

Key:
[1] = target: T1, MDC hetero-tetramer (MdcA active site) (Pseudomonas aeruginosa, UniProt Q9I6T0); assay: X-ray crystal structure, […] Å; assay type: binding; conditions: malonate from the crystallization solution; MdcA active site between domains AN and AC; apo MdcC
T1 construct: hybrid hetero-tetramer: full-length MdcA (1-554), MdcD, MdcE of P. aeruginosa and full-length MdcC of P. fluorescens without prosthetic group; only MdcE N-terminal His-tagged; E. coli Rosetta; 140 kD, 1:1:1:1; with Malonate decarboxylase acyl carrier protein (malonate decarboxylase subunit delta), Pseudomonas fluorescens; Malonate decarboxylase subunit beta; Malonate decarboxylase subunit gamma
T1 sequence (Q4K4F7 whole entry, one chain of several, further chain, the tested form may be a part): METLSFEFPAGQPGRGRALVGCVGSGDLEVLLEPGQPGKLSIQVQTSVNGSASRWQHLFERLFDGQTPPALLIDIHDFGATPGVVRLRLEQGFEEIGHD
T1 sequence (Q9I6T0 entry or part of it, one chain of several): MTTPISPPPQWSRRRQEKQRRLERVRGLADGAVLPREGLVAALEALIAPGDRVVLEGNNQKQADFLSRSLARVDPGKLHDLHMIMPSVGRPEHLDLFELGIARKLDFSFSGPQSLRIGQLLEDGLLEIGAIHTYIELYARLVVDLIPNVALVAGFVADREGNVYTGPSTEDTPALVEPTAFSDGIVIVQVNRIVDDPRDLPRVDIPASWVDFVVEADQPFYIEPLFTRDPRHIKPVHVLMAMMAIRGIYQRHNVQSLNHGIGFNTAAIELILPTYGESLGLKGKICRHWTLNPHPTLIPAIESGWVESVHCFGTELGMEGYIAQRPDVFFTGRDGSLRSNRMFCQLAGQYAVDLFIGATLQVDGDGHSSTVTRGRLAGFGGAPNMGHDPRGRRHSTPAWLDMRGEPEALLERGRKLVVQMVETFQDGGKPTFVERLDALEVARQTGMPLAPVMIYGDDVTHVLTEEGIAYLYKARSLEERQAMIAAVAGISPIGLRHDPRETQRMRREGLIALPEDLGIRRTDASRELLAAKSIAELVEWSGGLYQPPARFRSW

[2] = target: MdcE subunit of malonate decarboxylase (P. aeruginosa), N-terminal His tag (P. aeruginosa); assay: SEC; gel filtration of the co-expressed, purified MdcD–MdcE complex
purified protein = substrate: CC(C)(COP(=O)(O)OP(=O)(O)OC[C@H]1O[C@@H](n2cnc3c(N)ncnc32)[C@H](O)[C@@H]1OP(=O)(O)O)[C@@H](O)C(=O)NCCC(=O)NCCSC(=O)CC(=O)O; assay: purified protein; assay type: biochemical, Pseudomonas aeruginosa; conditions: decarboxylation, 2.5 μM enzyme, 20 mM Tris pH 8.0, Hill equation fit, Hill coefficient 1.68 ± 0.13

Q: How did the “X-ray crystal structure, 2.2 Å” value [1] turn out when `O=C(O)CC(=O)O` [malonate] was run?
A: A malonate molecule from the crystallization solution is bound in the active site

B1: MdcD subunit of malonate decarboxylase (P. aeruginosa) (natural protein)
chain: MTDVARLLALRSFTELGARQRARALLDAGSFRELLDPFAGVQSPWLERQGIVPQADDGVVVARGLLDGQPAVLAAIEGAFQGGSLGEVSGAKIAGALELAAEDNRNGVPTRALLLLETGGVRLQEANLGLAAIAEIQAAIVDLQRYQPVVAVIAGPVGCFGGMSIAAGLCSYVLVTREARLGLNGPQVIEQEAGIAEYDSRDRPFIWSLTGGEQRFASGLADAYLADDLDEVRTSVLAYFAKGLPARPRCRRAEDYLRRLGDLDTAEQPDAAGVRRLYQGLGQGDAT
Q: How did the stoichiometry N [2] turn out when B1 was run?
A: 1

B2: MdcD–MdcE complex (Pseudomonas aeruginosa PAO1) (protein)
chain 1: MTDVARLLALRSFTELGARQRARALLDAGSFRELLDPFAGVQSPWLERQGIVPQADDGVVVARGLLDGQPAVLAAIEGAFQGGSLGEVSGAKIAGALELAAEDNRNGVPTRALLLLETGGVRLQEANLGLAAIAEIQAAIVDLQRYQPVVAVIAGPVGCFGGMSIAAGLCSYVLVTREARLGLNGPQVIEQEAGIAEYDSRDRPFIWSLTGGEQRFASGLADAYLADDLDEVRTSVLAYFAKGLPARPRCRRAEDYLRRLGDLDTAEQPDAAGVRRLYQGLGQGDAT
chain 2: MSQPFASRGLAWFQALAGSLAPRPGDPASLRVADAELDGYPVRFLAVVPDPDNPFPRARQGEVGLLEGWGLAAAVDEALEADREAPRKRALLAIVDVPSQAYGRREEALGIHQALAGAVDAYARARLAGHPLIGLLVGKAMSGAFLAHGYQANRLIALHDPGVMVHAMGKAAAARITLRSVEELEALAAKVPPMAYDIDSYASLGLLWRTLPVETVEVPSTADLVRVRTCLGEALADILGGPRDLGGRLGAANREASARVRRLLREQW
notes: full-length; N-terminal His-tagged MdcE (28 kD), untagged MdcD (30 kD); co-expressed in E. coli BL21Star (DE3) from pCDFDuet; 1:1 hetero-dimer in solution
Q: For B2, which K0.5 (purified protein) is on record?
A: 100 ± 5 µM

Q: What about the kcat (purified protein) of the same molecule?
A: 2.3 ± 0.1 s⁻¹
